system: dSpCas9-GFP (Streptococcus pyogenes); assay: MST; conditions: MST: 20 mM HEPES pH 7.5, 150 mM KCl, 1 mM DTT, 10 mM MgCl2

Substance | Kd [nM]
EMX1 target (30 bp) with EMX1 sgRNA | 10.9
VEGFA3 target (30 bp) with VEGFA3 sgRNA | 49.6
VEGFA3 off-target (30 bp) with VEGFA3 sgRNA | 142
EMX1 off-target (30 bp) with EMX1 sgRNA | 27.2
